The numbers were not newly measured in article PMC9636575, which cites them from elsewhere.

Some results are limits rather than exact numbers.

The target of this series is MqsA 1-76 (Escherichia coli) (UniProt Q46864).
Chain of MqsA 1-76 (Escherichia coli) (Q46864 1-76): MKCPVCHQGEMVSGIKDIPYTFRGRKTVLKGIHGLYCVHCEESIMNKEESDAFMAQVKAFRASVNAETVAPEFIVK

Chain of MqsR (Q46865 whole entry): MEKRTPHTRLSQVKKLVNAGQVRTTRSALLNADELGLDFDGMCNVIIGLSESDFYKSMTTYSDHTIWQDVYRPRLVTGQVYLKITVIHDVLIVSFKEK

As to MqsR (from UniProt Q46865), the equilibrium dissociation constant (Kd) is below 1 nM.

One may read the Kd as the constant that tells how readily two partners part at equilibrium.
